Fold selectivity of PD-1 toward full-length Shp2 over Shp1 data for one substance are collected here from article PMC6286077.

The experiment has as its target phosphorylated PD-1 cytosolic domain, bound to large unilamellar vesicles (LUVs). As to the kind of experiment: FRET or BRET.

On to “Shp1, full length, SNAP-Tag fused, labeled with SNAP-Cell 505 (from UniProt P29350 1-595) (enzyme)”, for which the fold selectivity of PD-1 toward full-length Shp2 over Shp1 was found to be 29 fold.
